Measured values reported in publication PMC3901395, “Multivalent interactions of the SUMO-interaction motifs in RING finger protein 4 determine the specificity for chains of the SUMO” (Biochemical Journal, 2013).

How the values were obtained:
Test in all cases: ITC; VP-ITC or ITC200; 25°C; ITC buffer (50 mM Tris/HCl, pH 7.5, 150 mM NaCl, 2 mM DTT, 5% glycerol); SUMOs titrated into a solution of the RNF4 construct or peptide (legends of Figures 1B, 2B); 20–30 injections up to 2–3-fold molar excess; values averaged from two to six titrations
[1] = molecular target: RNF4 1–125 (RNF4-SIM domain, wt) (human) (UniProt P78317)
Sequence of RNF4 1–125 (RNF4-SIM domain, wt) (human) (P78317 1-125): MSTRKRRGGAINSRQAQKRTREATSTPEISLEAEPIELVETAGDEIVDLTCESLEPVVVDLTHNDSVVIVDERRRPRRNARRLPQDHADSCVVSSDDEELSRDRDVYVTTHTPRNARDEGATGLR

[2] = molecular target: synthetic tandem PIAS1 SIM peptide
[3] = molecular target: RNF4-SIM2/3 peptide (human)
Sequence of RNF4-SIM2/3 peptide (human) (P78317 43-65): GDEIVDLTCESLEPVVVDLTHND

Row | Kd [1] | Kd [2] | Kd [3] | Substance
1 | 17 µM |  |  | linear di-SUMO1 (2×SUMO1-ΔN15) (from UniProt P63165 16-101; P63165 16-101)
2 | 14 µM | 3.8 µM | 8.5 µM | linear di-SUMO2 (2×SUMO2-ΔN11) (from UniProt P61956 12-95; P61956 12-95)
3 | 4.3 µM |  |  | linear tetra-SUMO1 (4×SUMO1-ΔN15) (from UniProt P63165 16-101; P63165 16-101; P63165 16-101; P63165 16-101)
4 | 1.6 µM |  |  | linear tetra-SUMO2 (4×SUMO2-ΔN11) (from UniProt P61956 12-95; P61956 12-95; P61956 12-95; P61956 12-95)
